Laboratory results as given in patent publication US20160152947A1 (BOARD OF REGENTS OF THE UNIVERSITY OF OKLAHOMA, published 2016).

Tests used:
[1] = molecular target: T1, MBP-Th-LGR4 LRR1-14 (MBP-Th-hLGR4.23-383-H6) (human, UniProt Q9BXB1 23-383); assay: TR-FRET competition binding; Tb-labeled MBP-Th-LGR4 LRR1-14 (20 nM), AF488-labeled MBP-Th-RSPO2 Fu1-Fu2 (125 nM) as tracer
T1 construct: range 23-383; Produced in E. coli; Labeled with amine-reactive terbium chelate in the TR-FRET assay; unlabeled in the AlphaLISA ternary complex assay; also called MBP-Th-LGR4 ECD; LGR4 ECD; not shown: thrombin cut site (Th) linker
Procedure: (§1) HEK293T cells transfected with TOPFLASH firefly luciferase reporter and Renilla luciferase control plasmids were treated with the indicated concentrations of MBP-Th-RSPO Fu1-Fu2 proteins in 1:6 diluted Wnt3a conditioned media. […] (C) AlphaLISA® luminescent proximity assay (BMG Labtech GmbH, Ortenberg, Germany) for ZNRF3 ECD binding. The indicated concentrations of MBP—Th-RSPO Fu1-Fu2 proteins were incubated with 3 nM Biotin-ZNRF3 ECD. Donor and acceptor beads were at 20 μg/ml each. Data shown for panels A-C are representative of at least three independent experiments, each performed in duplicate. The error bars represent the S.E.M. of the experiment. (D, E, F) Vertical scatter plots showing the pECso, Eₘₐₓ, and pK₁ values obtained from replicate independent signaling and LGR4 binding experiments as in panels A and B. The mean values and error bars representing the S.E.M. of the replicates are denoted.
(§2) The LGR4 ECD binding abilities of the newly purified MBP-Th-RSPO Fu1-Fu2-H₆ proteins were examined in an in vitro LanthaScreen®TR-FRET competition-binding assay (Thermo Fisher Scientific Inc., Rockford, Ill.).

[2] = molecular target: T1, MBP-Th-LGR4 LRR1-14 …; assay: TR-FRET competition binding; Tb-labeled MBP-Th-LGR4 LRR1-14, AF488-labeled MBP-Th-RSPO2 Fu1-Fu2 as tracer
[3] = molecular target: T1, MBP-Th-LGR4 LRR1-14 …; assay: AlphaLISA ternary complex control assay
[4] = molecular target: T1, MBP-Th-LGR4 LRR1-14 …; assay: TR-FRET competition binding to LGR4 ECD
Procedure: as §1, §2

pKI [1]	pKI [2]	Binder	further results
7.31	–	MBP-Th-RSPO3 Fu1-Fu2-H6 (MBP-Th-RSPO3.22-146-H6) (ligand, Produced in E. coli; also called pAP355; not shown: thrombin cut site (Th) linker) QNASRGRRQRRMHPNVSQGCQGGCATCSDYNGCLSCKPRLFFALERIGMKQIGVCLSSCPSGYYGTRYPDINKCTKCKADCDTCFNKNFCTKCKSGFYLHLGKCLDNCPEGLEANNHTMECVSIVHHHHHH	–
6.9	–	MBP-Th-RSPO1 Fu1-Fu2-H6 (ligand, Produced in E. coli; also called MBP-Th-hRSPO1 Fu1-Fu2-H6; not shown: thrombin cut site (Th) linker) SRGIKGKRQRRISAEGSQACAKGCELCSEVNGCLKCSPKLFILLERNDIRQVGVCLPSCPPGYFDARNPDMNKCIKCKIEHCEACFSHNFCTKCKEGLYLHKGRCYPACPEGSSAANGTMECSSPHHHHHH	–
–	8.23	commercial full-length RSPO4 produced in CHO cells (R&D Systems, catalog number 4575-RS-025/CF) (ligand, UniProt Q2I0M5 20-234, looked up, mature; Bought protein; also called R&D RSPO4 (CHO)) LNRRKKQVGTGLGGNCTGCIICSEENGCSTCQQRLFLFIRREGIRQYGKCLHDCPPGYFGIRGQEVNRCKKCGATCESCFSQDFCIRCKRQFYLYKGKCLPTCPPGTLAHQNTRECQGECELGPWGGWSPCTHNGKTCGSAWGLESRVREAGRAGHEEAATCQVLSESRKCPIQRPCPGERSPGQKKGRKDRRPRKDRKLDRRLDVRPRQPGLQP	–
–	–	Biotin-ZNRF3 ECD (Avi tag-ZNRF3.56-216-H6, MBP removed by thrombin) (receptor, human, biotin on the N-terminal Avi tag (site-specific in vivo biotinylation by BirA), range 56-216; Expressed in E. coli as MBP-Th-Avi tag-ZNRF3.56-216-H6; also called biotinylated ZNRF3 ECD; B-Z; not shown: Avi tag (and residues left after thrombin cleavage)) KETAFVEVVLFESSPSGDYTTYTTGLTGRFSRAGATLSAEGEIVQMHPLGLCNNNDEEDLYEYGWVGVVKLEQPELDPKPCLTVLGKAKRAVQRGATAVIFDVSENPEAIDQLNQGSEDPLKRPVVYVKGADAIKLMNIVNKQKVARARIQHRPPRQPTEYHHHHHH	binding result [3]: no binding (tested: 5 nM each)
7.26	–	MBP-Th-RSPO2 Fu1-Fu2-H6 (MBP-Th-RSPO2.22-144-H6) (ligand, Produced in E. coli; also called pAC018; not shown: thrombin cut site (Th) linker) QGNRWRRSKRASYVSNPICKGCLSCSKDNGCSRCQQKLFFFLRREGMRQYGECLHSCPSGYYGHRAPDMNRCARCRIENCDSCFSKDFCTKCKVGFYLHRGRCFDECPDGFAPLEETMECVEGHHHHHH	–
8.12	8.28	MBP-Th-RSPO4 Fu1-Fu2-H6 (MBP-Th-RSPO4.21-138-H6), produced in E. coli (ligand, Bacterially produced; also called MBP-Th-RSPO4 (E. coli); pAP356; not shown: thrombin cut site (Th) linker) NRRKKQVGTGLGGNCTGCIICSEENGCSTCQQRLFLFIRREGIRQYGKCLHDCPPGYFGIRGQEVNRCKKCGATCESCFSQDFCIRCKRQFYLYKGKCLPTCPPGTLAHQNTRECQGEHHHHHH	fold stronger affinity than RSPO2 and RSPO3 [4]: ~7 fold
